From the DeepSol protein solubility set

Experiment: soluble on expression in E. coli; label from the status in PepcDB or PDB records

Sequence	soluble on expression in E. coli
MGSDKIHHHHHHMLPNRLLANRAYSTAINRFRVVEVGARDGLQAEKKFVPTEIKVELIDRLSECGFQTVETTSFVSPKWVPQLADHNEIVKKHRRFEGVSYPVLVPNAAGLKNALATGVVEEIAVFGAASDAFSLKNVNSNVEDSLKKLMEVTKIALENNIRVRGYVSVVVGCPYQGAVQPEMVARVAEKLLESGCYEVSLGDTIGVGTVKTVSKMLDTVLKSVPAEKLAVHFHDTYGQALANVLISIEKGIRSADSSIAGLGGCPYAKGATGNLATEDLLYFLKGNGFETGVNLDKVVETAKWFNEAAGYDKWSRVGAAMMAKKSKSCC	not soluble
MYTTQMDAAKKGIITDEMRIVAEKEGVHVEKLRELVASGKVVIPANKNHKKLEPQGIGEGLRTKINVNIGISKDCCNFEMELEKAKKAIELKAEAIMDLSSYGKTREFRRKLVEMSPVMIGTVPVYDAVGFYEKDLKDISAEEFFEVVEKHAEDGVDFMTIHAGINRETAKRFKENGRLTNIVSRGGSLIFAWMELTGNENPFYEQYDRLLQIFEKYDVTISLGDALRPGSINDSTDASQIQELIVLGELTKRAWEKNVQVMIEGPGHMAINEIAPNMVLEKKLCHGAPFYVLGPIVTDIAPGYDHITSAIGGAIAAANGADFLCYVTPAEHLRLPDIDDMKEGIIAARIAAHAADIAKGIKGAREWDYQMSEARRNLDWNRMFELAIDREKAERYRKSSMPEDEDTCTMCGRMCAVKNTNKALKGEKINIL	not soluble
GPGSMHPRLSGQGVFPRYGGGWMHQFGHVYALQQELLNAEANNWFRAMELWHTARHEGVAMNVSHYTNILRQCVPPTAWEASLMVLKQMRRENIRPDVVGVGCALAACADANRSEEVEKVFSCFSGKLKLDSICYLALIKAKMSRGGYAEALAVGREQDADGVPFLPHTYTHLLEAAEVADDGEMALELARRMSSEQWPVSDRGREALKKLSTRHHWEEVAEYKQFVAVEDHKLSLPPTLPRG	not soluble
MSLDLLISNCTVFGREGSDAIGINEGRIAFIGIDRDLRAKKRIDLSGKIVFPGFIDSHAHLLSTGLEDIRLNLYHTKSKEEVVERIAEYSKGKEKVIAYRWDESMWKPQSSYLTSSDINGIPVPVVAFRRDGHMAVANQKAMDVIGTTRKEGIFKEDDIELLEPLVKPNEAEIRDALNTAANRAISLGIVAVRDMVDISTYNEYKNIKTPLKIYKVLYSDSIFDKFGTSSQNDWGIKAFLDGSLGSRTAAHKGWDASNLKMDESKFENFAKQIWMHNLPLAVHAIGEVAVETAAKVFYRNAGRNRNSIEHFELVDDDVLDYITKTTIISSQPNFLEWAGKGGMYEDRVGGEWLYKNNPFRWMIDRGIHLAFGSDSMPIGPMYGIYYAVNSEYQRQKITLEEAVRCYSEGGSYLLGTEGYMGMLRVGYSADMAVFDEKLLKDLRGIKAAKPEITIINGKIYTNEGHHHHHH	not soluble
MSLNNTPRYPQRVRNDLRFRELTVLRVERISAGFQRIVLGGEALDGFTSRGFDDHSKLFFPQPDAHFVPPTVTEEGIVWPEGPRPPSRDYTPLYDELRHELAIDFFIHDGGVASGWAMQAQPGDKLTVAGPRGSLVVPEDYAYQLYVCDESGMPALRRRLETLSKLAVKPQVSALVSVRDNACQDYLAHLDGFNIEWLAHDEQAVDARLAQMQIPADDYFIWITGEGKVVKNLSRRFEAEQYDPQRVRAAAYWHAKEGGSHHHHHH	soluble
MREVLLEKLRTEKFLQIALDFIDINDAIKVVNEVKDLENEIIEIGTPLLKSFGIEGIRKIKSLVPDKIIVADTKTADAGDVEVEIAKLGGAHIMTVLGIMDDSTIYSAVKKARELDILVQADLINVKNVYERSKELKQLGVDIIGFHVGLDVQKSRGISVADLKNEIRKVSELNLIISIAGGLNKDRILELIDLPVSIYVVGGAITRSKEPKNVSKEIVNILKGR	not soluble
MSLTGSSSITRTCAVIFSSGFRFMDLLHAVPYAALWHGRFEHPVLRIACILSIAAGNRVPICFESITRRIRPMTLHRPAPHPVFSLAETSGPVLGDLPGWKLSDLYPSGDSPEYKRDLEKAASMAAAFEAKWKDKLESAAKAKGEDGIGAALKDYEALDDLIGRIGSFAGLTYFSDTSNPANGKLYGDAQAKLTEISAHLLFFTLELNRIDDAVMDACMANDAAAGHYRPWLVDLRKDKPHQLDDQLEQLFLEKSMTSAAAFNRLFDETMADLRFDIDGASLSLEVTLNMLQEPEPETRRKAAEALSATFKDNLRVFTLITNTLAKDKDISDRWRNFEDIADSRHLANRVERDVVDALAAAVKKAYPRLSHRYYAMKAKWLGMEQMNYWDRNAPLPDTSNTIIPWDEAKDTVLSAYGNFAPEMADIARRFFDEEWIDAPARPGKAPGAFAHPTVPSAHPYVLVNYLGKPRDVMTLAHELGHGVHQVLAGQQGALMCATPLTLAETASVFGEMLTFRKLLDDTKDIRERKAMLARKVEDMINTVVRQIAFYEFERKLHTARKEGELTSEQIGELWLSVQAESLGPAIRISEGYETWWTYIPHFIHSPFYVYAYAFGDCLVNSLYAVYQKAEAGFQEKYFELLKAGGTKHHSELLKPFGLDATDPSFWDKGLSMIEGLIDELEELDRKQAEGHHHHHH	soluble
DNSSFDSLSPEPKSRFAMLDDVKILANGLLQLGHGLKDFVHKTKGQINDIFQKLNIFDQSFYDLSLQTSEIKEEEKELRRTTYKLQVKNEEVKNMSLELNSKLESLLEEKILLQQKVKYLEEQLTNLIQNQPETPEHPEVTSLKTFVEKQDNSIKDLLQTVEDQYKQLNQQHSQIKEIENQLRRTSIQEPTEISLSSKPRAPRTTPFLQLNEIRNVKHDGIPAECTTIYNRGEHTSGMYAIRPSNSQVFHVYCDVISGSPWTLIQHRIDGSQNFNETWENYKYGFGRLDGEFWLGLEKIYSIVKQSNYVLRIELEDWKDNKHYIEYSFYLGNHETNYTLHLVAITGNVPNAIPENKDLVFSTWDHKAKGHFNCPEGYSGGWWWHDECGENNLNGKYNKPRAKSKPERRRGLSWKSQNGRLYSIKSTKMLIHPTDSESFE	not soluble
MPLGLLWLGLALLGALHAQAQDSTSDLIPAPPLSKVPLQQNFQDNQFQGKWYVVGLAGNAILREDKDPQKMYATIYELKEDKSYNVTSVLFRKKKCDYAIATFVPGSQPGEFTLGNIKSYPGLTSYLVRVVSTNYNQHAMVFFKKVSQNREYFKITLYGRTKELTSELKENFIRFSKSLGLPENHIVFPVPIDQCIDG	soluble
MAHHHHHHMPQCGTEKHVSAPPSYTGPFVAVVVDLDGTILDDNHRVSDVTKATLYEVASCGVHIIIATGRPREGVAAIEQELNSYFRCNSRVPGRATSLAEVKGFHLVASNGARIYNTTGELISAESIDNSVVRAIYERVTESNINANSEDSMLVSVHQTGAWWVNNVLPEEWLRRKYGTLPEVRQNLSDFPTDGVGKICLRSFNEGTLRTFQKELDTKYEHYITTVMTSDHCLDIMPKGVSKASALRMVGEILNFEPHRDAIAFGDSLNDRDMLESVAKGCIMKNGKNELKELLPHVEVVGCNEEDGVAHKLREVFLLS	not soluble
MGSDKIHHHHHHMQASFMRMTDKRSPGKPLHPHGVLRPLVFKGRGALSNHDGRFDHLQHADIDDGWHNLDQDLAPLPTEVLIDNSRSIINWNNSPDVPFDRSINPYRGCEHGCIYCFARPTHTYLGLSAGLDFESRILVKPDAARLLRQELSKQHYRCAPIAMGTNTDPYQPLEKQHQLTRQILQVLAEFRHPVSIVTKAAMVERDIDILAPMASQGLVQVFISITTLSNQVSRTLEPRAAAPQRRLDTIRRLHQAGIPTGVMTAPVIPVLTDPELEHILAAASEAGASSAGYVLLRLPLEVAPLFEEWLQHHYPLKASHVMSIIRQSRDGKTNHTDFHARMRGNGLFAEMIRQRFRLACRKLGLNQRSMEMDTSLFRPPGKPEQLGLF	not soluble
